Patent US20250353921A1 (ASTRIA THERAPEUTICS, published 2025)
Positions count from the first letter of the chain named. In names and notes the source's numbering stands. Values belong to the binder of their own block, whether it stands above or below them.

Legend:
[1] = target: T1, Human CD32b, Sino Biological 10259-H08H (human, UniProt P31994 43-217); assay: SPR Biacore 8K+, receptor captured by anti-His, antibody as analyte
T1 construct: also called FcγRIIb
T1 sequence (looked up): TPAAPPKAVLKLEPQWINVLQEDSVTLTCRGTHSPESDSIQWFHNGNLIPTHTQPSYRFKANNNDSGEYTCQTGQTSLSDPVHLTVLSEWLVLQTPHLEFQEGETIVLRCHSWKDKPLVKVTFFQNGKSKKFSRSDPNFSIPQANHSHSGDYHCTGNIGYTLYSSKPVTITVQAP

[2] = target: T2, Human CD16a (F176V), Sino Biological 10389-H08H1 (human, UniProt P08637 17-208); assay: as above
T2 construct: also called FcγRIIIa176V

[3] = target: T3, Human CD16a (176F), Sino Biological 10389-H08H (human, UniProt P08637 17-208); assay: as above
T3 construct: also called FcγRIIIa176F

[4] = target: T4, Human CD32a (167 Arg), Sino Biological 10374-H08H (human, UniProt P12318 34-218); assay: as above
T4 construct: also called FcγRIIa167R
T4 sequence (looked up): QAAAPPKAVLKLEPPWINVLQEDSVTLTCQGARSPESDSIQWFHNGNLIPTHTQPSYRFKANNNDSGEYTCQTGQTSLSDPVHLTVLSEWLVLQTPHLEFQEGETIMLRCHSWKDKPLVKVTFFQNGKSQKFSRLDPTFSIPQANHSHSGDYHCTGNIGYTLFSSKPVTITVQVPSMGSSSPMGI

[5] = target: T5, Human CD32a (167 His), Sino Biological 10374-H08H1 (human, UniProt P12318 34-218); assay: as above
T5 construct: also called FcγRIIa167H
T5 sequence (looked up): T4 sequence (looked up) with R134H

[6] = target: T6, Human CD16b (NA2 allotype), Sino Biological 11046-H08H (human, UniProt O75015 17-200); assay: as above
T6 construct: also called FcγRIIIb

[7] = target: Human CD64 (FcγRI), Sino Biological 10256-H08H (human, UniProt P12314 16-288); assay: as above
[8] = target: T7, human OX40 (TNFRSF4, CD134) on cells (human, UniProt P43489 29-277); assay: flow cytometry on Jurkat-NF-κB-OX40 cells, detection with PE anti-human IgG Fc, occupancy in % of the saturating dose; no OX40L; time point (0 h or 5 h) not stated on the sheet
T7 construct: also called OX40 on HPB-ALL cells; Jurkat-NFκB-OX40 cells
T7 sequence: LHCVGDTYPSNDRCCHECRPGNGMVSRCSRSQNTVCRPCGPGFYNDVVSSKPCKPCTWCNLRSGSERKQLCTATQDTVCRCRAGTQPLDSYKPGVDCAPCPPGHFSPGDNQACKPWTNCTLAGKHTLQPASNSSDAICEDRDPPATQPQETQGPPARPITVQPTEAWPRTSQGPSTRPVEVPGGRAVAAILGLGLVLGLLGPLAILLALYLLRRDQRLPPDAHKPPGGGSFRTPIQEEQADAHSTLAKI

[9] = target: T8, Human OX40 (Acro Biosystems, catalog NO: OXO-H5224) protein (human, UniProt P43489 29-216); assay: SPR Biacore 8K+, single cycle kinetics, antibody captured by anti-human Fc, OX40 analyte, pH 7.4, 25 °C
T8 construct: Bought protein; also called recombinant human OX40 receptor; recombinant human OX40 protein
T8 sequence: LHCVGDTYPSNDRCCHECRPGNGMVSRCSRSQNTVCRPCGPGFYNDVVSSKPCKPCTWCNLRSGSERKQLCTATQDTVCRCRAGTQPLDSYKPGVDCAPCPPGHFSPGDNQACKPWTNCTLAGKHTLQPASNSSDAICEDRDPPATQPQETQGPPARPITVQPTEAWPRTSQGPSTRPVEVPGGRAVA

[10] = target: T7, human OX40 (TNFRSF4, CD134) on cells; assay: cell-based or functional assay
[11] = target: T7, human OX40 (TNFRSF4, CD134) on cells; assay: cell-based or functional assay; remark: listed apart in the source
[12] = target: T7, human OX40 (TNFRSF4, CD134) on cells; assay: cell-based or functional assay; remark: listed apart in the source
[13] = target: T9, Human FcRn protein (Acro Biosystems, catalog NO: FCN-H52W7) (human, UniProt P55899 24-297; P61769 21-119); assay: SPR Biacore 8K+, antibody immobilised, FcRn analyte, pH 6.0; pH 6.0
T9 construct: also called huFcRn

[14] = target: T7, human OX40 (TNFRSF4, CD134) on cells; assay: cell-based or functional assay; remark: listed apart in the source

T6 sequence (O75015 17-200 N65S limits assumed): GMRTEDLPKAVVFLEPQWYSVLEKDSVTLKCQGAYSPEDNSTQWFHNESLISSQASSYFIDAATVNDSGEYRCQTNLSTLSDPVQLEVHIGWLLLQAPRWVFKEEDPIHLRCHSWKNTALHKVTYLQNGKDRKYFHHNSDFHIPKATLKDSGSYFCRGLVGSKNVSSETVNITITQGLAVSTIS
T2 sequence (P08637 17-208 F176V limits assumed): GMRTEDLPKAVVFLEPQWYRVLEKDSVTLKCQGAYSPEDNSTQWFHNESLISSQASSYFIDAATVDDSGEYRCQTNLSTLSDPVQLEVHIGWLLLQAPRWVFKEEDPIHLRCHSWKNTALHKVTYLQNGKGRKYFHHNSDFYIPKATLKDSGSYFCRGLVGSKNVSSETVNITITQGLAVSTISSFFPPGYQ
Chain of Human CD64 (FcγRI), Sino Biological 10256-H08H (P12314 16-288 limits assumed): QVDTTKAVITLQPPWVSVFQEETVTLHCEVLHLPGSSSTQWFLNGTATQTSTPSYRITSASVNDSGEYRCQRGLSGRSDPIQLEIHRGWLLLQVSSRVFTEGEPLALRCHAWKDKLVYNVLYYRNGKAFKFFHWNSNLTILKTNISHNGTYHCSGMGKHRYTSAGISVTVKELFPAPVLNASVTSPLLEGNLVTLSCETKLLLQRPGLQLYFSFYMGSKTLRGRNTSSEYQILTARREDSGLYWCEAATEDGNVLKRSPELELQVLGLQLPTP
T3 sequence (P08637 17-208 limits assumed): as the sequence (P08637 17-208 F176V limits assumed) above, with V160F counted along it

Kd [1]: 11600 nM
Kd [2]: 297 nM
Kd [3]: 334 nM
Kd [4]: 6140 nM
Kd [5]: 4030 nM
Kd [6]: 3630 nM
Kd [7]: 5.4 nM
EC50 (read off the curve) [8]: ~0.2 nM
Kd [9]: 6.8 nM
koff [9]: 0.0016 s⁻¹
kon [9]: 230000 M⁻¹ s⁻¹
ADCC EC50, activated T cells (LDH release) [10]: 0.27 nM
Fold diff to MAB10, ADCC EC50, activated T cells [10]: 0.37 fold
Fold diff to MAB10, maximum ADCC, activated T cells [11]: 1.31 fold
Fold diff to MAB10, maximum ADCC, regulatory T cells [12]: 2.27 fold
Kd [13]: 102 nM
EC50, inhibition of IFNγ release [14]: 14.6 nM
EC50, inhibition of IL-2 release [14]: 2.36 nM
EC50, inhibition of IL-4 release [14]: 2.83 nM
EC50, inhibition of IL-5 release [14]: 21.3 nM
EC50, inhibition of IL-8 release [14]: 9.19 nM
EC50, inhibition of IL-10 release [14]: 28 nM
EC50, inhibition of IL-13 release [14]: 6.2 nM
EC50, inhibition of IL-17a release [14]: 24.4 nM
EC50, inhibition of IL-21 release [14]: 2.56 nM
EC50, inhibition of IL-22 release [14]: 9.19 nM
EC50, inhibition of IL-31 release [14]: 2.51 nM
EC50, inhibition of TNF-α release [14]: 4.1 nM
Fold diff to GBR830, IFNγ [14]: 4.6 fold
Fold diff to GBR830, IL-2 [14]: 3.4 fold
Fold diff to GBR830, IL-4 [14]: 15.8 fold
Fold diff to GBR830, IL-5 [14]: 3 fold
Fold diff to GBR830, IL-8 [14]: 6.3 fold
Fold diff to GBR830, IL-10 [14]: 2.4 fold
Fold diff to GBR830, IL-13 [14]: 11.2 fold
Fold diff to GBR830, IL-21 [14]: 18.5 fold
Fold diff to GBR830, IL-31 [14]: 11.9 fold
Fold diff to GBR830, TNF-α [14]: 10.6 fold
B1: MAB1 IgG1 (antibody)
heavy: not shown
light: EIVLTQSPATLSLSPGERATLSCRASSSVSYMHWYQQKPGQAPRPWIYATSNRATGIPARFSGSGSGTDYTLTISSLEPEDFAVYYCQQFGAWPWTFGQGTKVEIKRTVAAPSVFIFPPSDEQLKSGTASVVCLLNNFYPREAKVQWKVDNALQSGNSQESVTEQDSKDSTYSLSSTLTLSKADYEKHKVYACEVTHQGLSSPVTKSFNRGEC
notes: Human IgG1, kappa
Maximum killing (%), ADCC, activated T cells [11]: 45.6%
Maximum killing (%), ADCC, regulatory T cells [12]: 61.9%

Kd [1]: 7260 nM
Kd [2]: 330 nM
Kd [3]: 365 nM
Kd [4]: 4690 nM
Kd [5]: 3410 nM
Kd [6]: 3220 nM
Kd [7]: 6.2 nM
EC50 (read off the curve) [8]: ~0.4 nM
Kd [9]: 59.3 nM
koff [9]: 0.0086 s⁻¹
kon [9]: 150000 M⁻¹ s⁻¹
ADCC EC50, activated T cells (LDH release) [10]: 0.13 nM
Fold diff to MAB10, ADCC EC50, activated T cells [10]: 0.77 fold
Fold diff to MAB10, maximum ADCC, activated T cells [11]: 1.14 fold
Fold diff to MAB10, maximum ADCC, regulatory T cells [12]: 1.61 fold
Kd [13]: 112 nM
EC50, inhibition of IFNγ release [14]: 66.7 nM
EC50, inhibition of IL-2 release [14]: 7.92 nM
EC50, inhibition of IL-4 release [14]: 44.8 nM
EC50, inhibition of IL-5 release [14]: 63.6 nM
EC50, inhibition of IL-8 release [14]: 58.2 nM
EC50, inhibition of IL-10 release [14]: 66.8 nM
EC50, inhibition of IL-13 release [14]: 69.6 nM
EC50, inhibition of IL-21 release [14]: 47.3 nM
EC50, inhibition of IL-31 release [14]: 29.9 nM
EC50, inhibition of TNF-α release [14]: 43.3 nM
B2: GBR 830 (telazorlimab) (antibody, human IgG1, kappa)
heavy: not shown
light: B1 light with F90W, G91S, A92S, W93N
notes: IgG1; also called Antibody 830; ISB830
Maximum killing (%), ADCC, activated T cells [11]: 39.6%
Maximum killing (%), ADCC, regulatory T cells [12]: 44.1%

Kd [2]: 816 nM
Kd [3]: 992 nM
Kd [5]: 12700 nM
Kd [6]: 15600 nM
Kd [7]: 8.7 nM
EC50 (read off the curve) [8]: ~0.3 nM
Kd [9]: 7.2 nM
koff [9]: 0.0016 s⁻¹
kon [9]: 230000 M⁻¹ s⁻¹
ADCC EC50, activated T cells (LDH release) [10]: 0.1 nM
Kd [13]: 11.5 nM
EC50, inhibition of IFNγ release [14]: 11.8 nM
EC50, inhibition of IL-2 release [14]: 2.63 nM
EC50, inhibition of IL-4 release [14]: 2.88 nM
EC50, inhibition of IL-5 release [14]: 16.4 nM
EC50, inhibition of IL-8 release [14]: 9.55 nM
EC50, inhibition of IL-10 release [14]: 34.1 nM
EC50, inhibition of IL-13 release [14]: 5.3 nM
EC50, inhibition of IL-17a release [14]: 23.5 nM
EC50, inhibition of IL-21 release [14]: 2.75 nM
EC50, inhibition of IL-22 release [14]: 7.03 nM
EC50, inhibition of IL-31 release [14]: 2 nM
EC50, inhibition of TNF-α release [14]: 4.2 nM
Fold diff to GBR830, IFNγ [14]: 5.7 fold
Fold diff to GBR830, IL-2 [14]: 3 fold
Fold diff to GBR830, IL-4 [14]: 15.5 fold
Fold diff to GBR830, IL-5 [14]: 3.9 fold
Fold diff to GBR830, IL-8 [14]: 6.1 fold
Fold diff to GBR830, IL-10 [14]: 2 fold
Fold diff to GBR830, IL-13 [14]: 13.1 fold
Fold diff to GBR830, IL-21 [14]: 17.2 fold
Fold diff to GBR830, IL-31 [14]: 14.9 fold
Fold diff to GBR830, TNF-α [14]: 10.3 fold
B3: MAB10 (antibody, human IgG1, kappa)
heavy: QVTLKESGPALVKPTQTLTLTCSFSGFSLSTSGMGVGWIRQPPGKALEWIAHIWWDDDKYYNTALKTRLTISKDTSKNQVVLTMTNMDPVDTATYYCARIDWDGFAYWGQGTLVTVSSASTKGPSVFPLAPSSKSTSGGTAALGCLVKDYFPEPVTVSWNSGALTSGVHTFPAVLQSSGLYSLSSVVTVPSSSLGTQTYICNVNHKPSNTKVDKKVEPKSCDKTHTCPPCPAPELLGGPSVFLFPPKPKDTLYITREPEVTCVVVDVSHEDPEVKFNWYVDGVEVHNAKTKPREEQYNSTYRVVSVLTVLHQDWLNGKEYKCKVSNKALPAPIEKTISKAKGQPREPQVYTLPPSRDELTKNQVSLTCLVKGFYPSDIAVEWESNGQPENNYKTTPPVLDSDGSFFLYSKLTVDKSRWQQGNVFSCSVMHEALHNHYTQKSLSLSPGK
light: B1 light
notes: MAB1 with M252Y, S254T and T256E (EU numbering) in the IgG1 Fc; also called MAB1 Heavy Chain + YTE
binding result [1]: no binding (tested: 5,000 nM highest antibody concentration)
binding result [4]: no binding (tested: 5,000 nM highest antibody concentration)
Maximum killing (%), ADCC, activated T cells [11]: 34.9%
Maximum killing (%), ADCC, regulatory T cells [12]: 27.3%
